Results: PMC6101608 (Nucleic Acids Research, 2018)

What was measured:
[1] = test system: HpoR (Mycobacterium smegmatis mc2 155); test: EMSA
[2] = test system: LtmA (Mycobacterium smegmatis mc2 155); test: EMSA
HpoR = target: T1, HpoR (M. smegmatis mc2 155, UniProt A0R4J9 1-199); test: SPR
T1 sequence: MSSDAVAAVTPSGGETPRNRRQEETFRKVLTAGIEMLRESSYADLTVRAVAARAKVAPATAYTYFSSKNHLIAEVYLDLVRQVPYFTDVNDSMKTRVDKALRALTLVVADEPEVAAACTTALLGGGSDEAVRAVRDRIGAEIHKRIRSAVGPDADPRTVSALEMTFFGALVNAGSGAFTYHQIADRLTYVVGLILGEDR

Molecule: Ms5860p
- Kd [1]: 290 nM
- Kd [2]: 620 nM

B1: LtmA (natural protein)
chain: MSDPAMESTRRRLSARQADTVERLGRAAVELISREGYAGLTVRRVAAEAGVGSATAYTYFSSKEHLVAEVFWRRLSAAPPAVHESPDPATRVVEVLQHIASLVADEPAFAGAVTTALLGKDPDVDALRQRIGADIRQRLVAALGPDVRIDVIEALELLYTGTMVWAGMGYDSYEQVVRRLEKSARLVLS
- Kd (HpoR): 7500 ± 800 nM
